# The supplement of paper PMC9732359
# ± gives the uncertainty stated by the source.
# Assay: protein stability index of a GFP-peptide fusion (yeast GPS) (PSI 1-4); higher = more stable; sorted into four equal gates, so the index is relative within each strain
# Method in brief: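 Peptides tiling yeast proteins in 17-residue segments were fused downstream of GFP, with Cherry expressed from the same plasmid. As a pooled library in yeast, mid-log cultures grown in leucine-free medium were sorted into four equal gates by GFP/Cherry fluorescence ratio. Gate plasmids were PCR-amplified and Illumina-sequenced, and barcodes linked reads to strains. Each peptide received a protein stability index equal to the sum of each gate's read frequency times its gate number.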
Sequence,protein stability index (doa10∆),protein stability index (pdr5∆),protein stability index (san1∆),protein stability index (ubr1∆)
TVNHSEKFPNDVKLLNP [RPP1],2.79 ± 0.05,2.87 ± 0.034,3.08 ± 0.036,3 ± 0.036
TVPRIVQLLSKSHNAHV [RPN2],1.91 ± 0.056,1.69 ± 0.044,2.08 ± 0.067,1.98 ± 0.048
TVQNEILGDLGKEFGTT [FAS2],3.03 ± 0.2,2.34 ± 0.25,2.57 ± 0.093,2.9 ± 0.16
TVQYVRFFWKRSTNKKS [UBP6],1.65 ± 0.054,1.35 ± 0.047,1.2 ± 0.15,1.12 ± 0.04
TVSILQESSSLRLLEVT [POP8],2.2 ± 0.055,2.38 ± 0.048,2.4 ± 0.083,2.33 ± 0.033
TVTLNKNREVVQVSKAG [RRP45],2.8 ± 0.092,2.98 ± 0.075,2.76 ± 0.065,2.82 ± 0.065
TVVQVYDNGQVFPSSIL [RPP0],1.19 ± 0.059,1.29 ± 0.13,,1.29 ± 0.14
TYLNEVLEKDAAIVKKY [YGR119C/NUP57],3.27 ± 0.11,3.37 ± 0.093,2.99 ± 0.076,3.08 ± 0.069
TYVEELFPIVKKHGKTD [YJL039C/NUP192],3.33 ± 0.14,3.44 ± 0.11,3.32 ± 0.12,3.19 ± 0.091
VAATITSSQKEPFFLVT [SRB8],1.8 ± 0.071,2.17 ± 0.086,2.12 ± 0.083,2.21 ± 0.075
VAIGNTYGFLTPNLWAE [RPS2],2.26 ± 0.073,2.49 ± 0.054,2.36 ± 0.089,2.43 ± 0.04
VANQTSATFLRIVGSEL [RPT2],2.45 ± 0.12,2.29 ± 0.096,2.15 ± 0.15,2.13 ± 0.082
VCAKLFGNIQKVVNFWL [RPO21],2.03 ± 0.098,1.93 ± 0.07,1.95 ± 0.11,1.78 ± 0.074
VDYGGAEWSLVRIYSGL [SNU114],,,,3.66 ± 0.18
VECTISILRKSSPEEPF [SNF12],1.27 ± 0.061,1.46 ± 0.064,2.32 ± 0.066,1.14 ± 0.051
VEDGNILVFQVSMKANK [RPL25],2.58 ± 0.043,2.46 ± 0.047,2.5 ± 0.047,2.69 ± 0.037
VEEDHTLGNALRYVIMK [RPC19],3.08 ± 0.11,2.75 ± 0.071,2.54 ± 0.085,2.73 ± 0.063
VEETEVPTVPPSQSEEQ [MED4],2.73 ± 0.079,2.69 ± 0.1,2.43 ± 0.13,2.74 ± 0.055
VEGISEVQARKSKSVSF [RPT5],3.41 ± 0.068,3.49 ± 0.11,3.41 ± 0.068,3.3 ± 0.069
VENELLQVDVDIAGQRD [RRP42],1.36 ± 0.25,2.12 ± 0.28,,1.14 ± 0.19
VEYLTRYVAGVQQRYTQ [PRE6],1.47 ± 0.065,1.89 ± 0.086,1.65 ± 0.09,1.66 ± 0.1
VEYNLFTNRSTMMANFE [BRN1],2.11 ± 0.18,2.4 ± 0.18,2.37 ± 0.095,2.65 ± 0.053
VFDKDGNYIKTENATEN [LIN1],,,,3.72 ± 0.28
VFGASDKQAEGTPLFTF [YOR098C/NUP1],2.83 ± 0.074,2.86 ± 0.087,3 ± 0.097,3.21 ± 0.081
VFGTIIPKISDYIEFNI [YJL039C/NUP192],2.05 ± 0.17,1.68 ± 0.22,,1.61 ± 0.26
VFKTHSYRGVDLEKLLE [RPS15],3.2 ± 0.083,3.18 ± 0.062,3.14 ± 0.045,2.29 ± 0.04

Sequence,protein stability index (doa10∆),protein stability index (pdr5∆),protein stability index (san1∆),protein stability index (ubr1∆)
VFPSSILDITDEELVSH [RPP0],2.89 ± 0.067,2.94 ± 0.1,3.26 ± 0.068,2.99 ± 0.065
VFSESCSNESFASIPVS [SNU114],2.98 ± 0.061,3.29 ± 0.068,2.88 ± 0.062,3.12 ± 0.044
VFTMKELAQYMKTNVHT [RGR1],2.66 ± 0.1,2.84 ± 0.13,2.6 ± 0.082,2.69 ± 0.057
VFVGSGKGTGKTAMAEL [BRR2],3.29 ± 0.12,3.54 ± 0.15,3.44 ± 0.071,3.41 ± 0.098
VFYRMQQLRRALPDVVV [RPO31],1.83 ± 0.038,1.93 ± 0.035,1.82 ± 0.074,1.99 ± 0.047
VGDVVGGALDNPFEDDM [BRN1],,3.37 ± 0.15,3.58 ± 0.21,3.16 ± 0.11
VGKQIVNIPSFMVRLDS [RPS9A],2.59 ± 0.099,2.69 ± 0.12,2.42 ± 0.18,2.62 ± 0.096
VGLRSNTHAVLVALKRN [PRE5],1.2 ± 0.037,1.45 ± 0.039,1.15 ± 0.093,1.21 ± 0.033
VGLSQPDAKIQVRRDIP [YMR129W/POM152],2.98 ± 0.082,2.76 ± 0.14,2.51 ± 0.059,2.97 ± 0.066
VGPHFKQANNFLWPFKL [RPL7A],2.71 ± 0.069,3.05 ± 0.098,2.97 ± 0.065,2.93 ± 0.064
VGSPLTVSILQESSSLR [POP8],3.21 ± 0.078,3.01 ± 0.057,3.01 ± 0.063,3.1 ± 0.042
VHKLRHYLVNLTSPAFG [GRR1],1.24 ± 0.04,1.38 ± 0.035,1.34 ± 0.077,1.21 ± 0.031
VHPFHVLRINKMLSCAG [RPL10],1.11 ± 0.086,1.21 ± 0.075,1.21 ± 0.092,1.05 ± 0.06
VHRDDPALVGKLRGDLR [SNF6],3.36 ± 0.083,3.2 ± 0.088,2.7 ± 0.092,2.88 ± 0.071
VIDIGASGCNVTPIIDG [ARP7],2.67 ± 0.088,3.03 ± 0.084,2.93 ± 0.071,3.02 ± 0.05
VIIRRLKTRDWIVVLPW [POP1],1.9 ± 0.072,1.46 ± 0.13,1.98 ± 0.15,1.82 ± 0.057
VIRIPMQENDKINQERL [CSI1],2.42 ± 0.083,2.83 ± 0.085,2.37 ± 0.11,2.82 ± 0.072
VIVTDPRLDAQAIKEAS [RPS0B],3.03 ± 0.096,3.1 ± 0.083,2.88 ± 0.072,2.9 ± 0.075
VIYRNSLYKVSFLEKPK [YMR129W/POM152],2.49 ± 0.065,2.61 ± 0.081,2.42 ± 0.073,2.43 ± 0.12
VKALRNVPGVETANVAS [RPL4A],2.76 ± 0.069,3.15 ± 0.062,2.98 ± 0.051,3.01 ± 0.048
VKCEELSNTLACYRTIM [RRP40],2.24 ± 0.069,2.49 ± 0.093,2.01 ± 0.087,2.57 ± 0.075
VKDEAFDDLLKPVYKGK [RET1],3.35 ± 0.16,3.32 ± 0.15,3.3 ± 0.11,3.12 ± 0.17
VKDLGQGLKLAKKHKLN [SMC3],3.12 ± 0.11,2.92 ± 0.13,2.83 ± 0.097,2.81 ± 0.068
VKEESQPDENTKEMDEV [SWI3],3.3 ± 0.19,2.81 ± 0.24,3.07 ± 0.17,3.03 ± 0.11
VKGDLLQEAIDFAQKEI [PRE10],2.9 ± 0.076,2.84 ± 0.066,3.2 ± 0.054,2.9 ± 0.048
